This passage reports GFP positive cells after transduction of activated lymphocytes (GFP vector) results from patent US20230167158A1.

This test addresses human CD3 on activated lymphocytes (human). Put plainly: cell-based or functional assay.

Some results are limits rather than exact numbers.

OKT3-VSVG registered a GFP positive cells after transduction of activated lymphocytes (GFP vector) of 7%.

As for OKT3-CD8a-VSVG, the GFP positive cells after transduction of activated lymphocytes (GFP vector) was greater than 50%.
